Reference: paper PMC7736794

Target: T1, PrimPol (endogenous, OVCAR8), Q96LW4
T1 chain: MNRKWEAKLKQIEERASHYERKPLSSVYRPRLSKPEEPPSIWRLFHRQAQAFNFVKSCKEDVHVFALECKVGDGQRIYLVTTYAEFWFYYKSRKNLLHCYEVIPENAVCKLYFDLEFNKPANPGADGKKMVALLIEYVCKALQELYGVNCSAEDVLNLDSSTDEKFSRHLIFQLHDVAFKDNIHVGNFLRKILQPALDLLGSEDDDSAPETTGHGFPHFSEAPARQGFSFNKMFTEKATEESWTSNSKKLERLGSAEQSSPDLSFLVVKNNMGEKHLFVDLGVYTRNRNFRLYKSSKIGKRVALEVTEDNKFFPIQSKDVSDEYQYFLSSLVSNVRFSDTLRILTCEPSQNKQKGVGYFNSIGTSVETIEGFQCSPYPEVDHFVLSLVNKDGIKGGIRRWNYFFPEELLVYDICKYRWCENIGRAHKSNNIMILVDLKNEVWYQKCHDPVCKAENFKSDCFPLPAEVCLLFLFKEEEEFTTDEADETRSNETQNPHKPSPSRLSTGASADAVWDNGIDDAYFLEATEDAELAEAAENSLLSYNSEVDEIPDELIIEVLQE
Test: in situ proximity ligation assay (PLA)
Settings: chain shown with the change, USP36 stably knock-down OVCAR8 cells, read off a plot

response (PLA puncta / cell) (HU (10 mM) for 4 h, parent: est. 17): 15
response (PLA puncta / cell) (untreated (Ctrl), parent: est. 11): 15
B1: USP36-wild-type (WT), transfected in OVCAR8, Q9P275 K329R; K338R (protein)
chain: MPIVDKLKEALKPGRKDSADDGELGKLLASSAKKVLLQKIEFEPASKSFSYQLEALKSKYVLLNPKTEGASRHKSGDDPPARRQGSEHTYESCGDGVPAPQKVLFPTERLSLRWERVFRVGAGLHNLGNTCFLNATIQCLTYTPPLANYLLSKEHARSCHQGSFCMLCVMQNHIVQAFANSGNAIKPVSFIRDLKKIARHFRFGNQEDAHEFLRYTIDAMQKACLNGCAKLDRQTQATTLVHQIFGGYLRSRVKCSVCKSVSDTYDPYLDVALEIRQAANIVRALELFVKADVLSGENAYMCAKCKKKVPASKRFTIHRTSNVLTLSLRRFANFSGGRITKDVGYPEFLNIRPYMSQNNGDPVMYGLYAVLVHSGYSCHAGHYYCYVKASNGQWYQMNDSLVHSSNVKVVLNQQAYVLFYLRIPGSKKSPEGLISRTGSSSLPGRPSVIPDHSKKNIGNGIISSPLTGKRQDSGTMKKPHTTEEIGVPISRNGSTLGLKSQNGCIPPKLPSGSPSPKLSQTPTHMPTILDDPGKKVKKPAPPQHFSPRTAQGLPGTSNSNSSRSGSQRQGSWDSRDVVLSTSPKLLATATANGHGLKGNDESAGLDRRGSSSSSPEHSASSDSTKAPQTPRSGAAHLCDSQETNCSTAGHSKTPPSGADSKTVKLKSPVLSNTTTEPASTMSPPPAKKLALSAKKASTLWRATGNDLRPPPPSPSSDLTHPMKTSHPVVASTWPVHRARAVSPAPQSSSRLQPPFSPHPTLLSSTPKPPGTSEPRSCSSISTALPQVNEDLVSLPHQLPEASEPPQSPSEKRKKTFVGEPQRLGSETRLPQHIREATAAPHGKRKRKKKKRPEDTAASALQEGQTQRQPGSPMYRREGQAQLPAVRRQEDGTQPQVNGQQVGCVTDGHHASSRKRRRKGAEGLGEEGGLHQDPLRHSCSPMGDGDPEAMEESPRKKKKKKRKQETQRAVEEDGHLKCPRSAKPQDAVVPESSSCAPSANGWCPGDRMGLSQAPPVSWNGERESDVVQELLKYSSDKAYGRKVLTWDGKMSAVSQDAIEDSRQARTETVVDDWDEEFDRGKEKKIKKFKREKRRNFNAFQKLQTRRNFWSVTHPAKAASLSYRR
